Reference: paper PMC3463355

Tests used:
[1] = molecular target: PARP-1 (full-length) (human, UniProt P09874 1-1014, V762A); test: HI-FI FRET
[2] = molecular target: N-parp (Zn1-Zn3 and BRCT) (UniProt P09874 1-486); test: HI-FI FRET
Chain of N-parp (Zn1-Zn3 and BRCT) (P09874 1-486): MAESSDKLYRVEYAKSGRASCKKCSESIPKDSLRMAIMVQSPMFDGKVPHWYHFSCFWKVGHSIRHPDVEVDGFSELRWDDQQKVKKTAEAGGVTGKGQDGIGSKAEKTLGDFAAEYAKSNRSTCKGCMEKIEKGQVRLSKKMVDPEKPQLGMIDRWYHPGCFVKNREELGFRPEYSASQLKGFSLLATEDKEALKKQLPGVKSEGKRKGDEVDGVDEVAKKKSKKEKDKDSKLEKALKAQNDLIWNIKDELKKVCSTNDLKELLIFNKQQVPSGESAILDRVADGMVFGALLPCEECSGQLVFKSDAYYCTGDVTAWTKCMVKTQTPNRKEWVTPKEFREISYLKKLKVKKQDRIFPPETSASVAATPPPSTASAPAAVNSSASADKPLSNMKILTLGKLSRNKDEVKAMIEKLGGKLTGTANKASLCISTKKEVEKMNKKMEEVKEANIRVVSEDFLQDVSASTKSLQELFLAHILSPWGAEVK

Chain of PARP-1 (full-length) (P09874 whole entry V762A): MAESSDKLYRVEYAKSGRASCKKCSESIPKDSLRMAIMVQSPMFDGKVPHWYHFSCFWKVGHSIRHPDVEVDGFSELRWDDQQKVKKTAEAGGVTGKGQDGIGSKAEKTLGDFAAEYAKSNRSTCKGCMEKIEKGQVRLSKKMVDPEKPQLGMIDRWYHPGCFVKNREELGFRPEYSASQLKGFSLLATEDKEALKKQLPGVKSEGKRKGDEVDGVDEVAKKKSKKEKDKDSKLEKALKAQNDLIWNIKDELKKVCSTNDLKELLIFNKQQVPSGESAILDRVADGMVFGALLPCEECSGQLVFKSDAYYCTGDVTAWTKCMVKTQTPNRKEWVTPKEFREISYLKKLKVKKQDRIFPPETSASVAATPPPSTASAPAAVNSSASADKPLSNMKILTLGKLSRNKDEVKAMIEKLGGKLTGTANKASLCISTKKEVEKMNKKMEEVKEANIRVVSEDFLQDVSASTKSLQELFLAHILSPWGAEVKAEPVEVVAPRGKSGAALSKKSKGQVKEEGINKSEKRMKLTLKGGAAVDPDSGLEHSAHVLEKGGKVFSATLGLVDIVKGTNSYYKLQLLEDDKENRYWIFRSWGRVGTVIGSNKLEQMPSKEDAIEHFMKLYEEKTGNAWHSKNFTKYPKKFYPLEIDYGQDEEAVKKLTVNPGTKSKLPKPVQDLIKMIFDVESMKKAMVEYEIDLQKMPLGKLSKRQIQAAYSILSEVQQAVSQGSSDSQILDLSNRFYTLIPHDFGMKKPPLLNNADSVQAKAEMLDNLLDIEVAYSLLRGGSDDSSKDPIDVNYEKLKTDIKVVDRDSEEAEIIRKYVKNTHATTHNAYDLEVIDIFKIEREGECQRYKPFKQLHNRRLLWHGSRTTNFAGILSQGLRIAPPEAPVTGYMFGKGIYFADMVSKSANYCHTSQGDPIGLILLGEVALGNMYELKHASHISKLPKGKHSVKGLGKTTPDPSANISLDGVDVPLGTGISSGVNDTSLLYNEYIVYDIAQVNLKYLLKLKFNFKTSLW

B1: 30Blunt (dsDNA)
DNA 1: ATCAGATAGCATCTGTGCGGCCGCTTAGGG
DNA 2: CCCTAAGCGGCCGCACAGATGCTATCTGAT
Kd [1]: 31.7 ± 6.9 nM
Kd [2]: 62.2 ± 10.2 nM

B2: 30AATT (dsDNA)
DNA 1: ATCAGATAGCATCAATTCGGCCGCTTAGGG
DNA 2: CCCTAAGCGGCCGAATTGATGCTATCTGAT
modifications: 4 central bp of 30Blunt (TGTG) replaced by AATT
Kd [1]: 8.5 ± 2.1 nM
Kd [2]: 25.7 ± 0.9 nM
